# Data from patent US20050079503A1, “Binding domain of Siah (seven in absentia homolog) protein” (PETER MacCALLUM CANCER INSTITUTE, ST. VINCENT'S INSTITUTE …, priority 2001, published 2005).
# T1: Siah (Mus musculus, UniProt P61092)
# T1 construct: made in house; host or cells: bacteria
# T1 sequence (P61092 1-282): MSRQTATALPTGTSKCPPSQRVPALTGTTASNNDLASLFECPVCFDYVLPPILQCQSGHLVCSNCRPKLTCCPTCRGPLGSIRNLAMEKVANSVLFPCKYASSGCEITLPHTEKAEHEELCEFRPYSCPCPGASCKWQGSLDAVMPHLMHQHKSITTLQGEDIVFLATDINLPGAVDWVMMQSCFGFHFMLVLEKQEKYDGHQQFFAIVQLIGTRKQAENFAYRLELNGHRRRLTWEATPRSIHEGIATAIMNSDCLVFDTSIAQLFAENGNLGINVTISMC
# Target: T1, Siah
# Experiment: Interaction studies using bacterially expressed proteins
# Assay type: binding
# From the text: PHYL is known to interact and function with SINA, the Drosophila orthologue of mammalian Siah, in the targeted degradation of the transcriptional repressor tramtrack 88 (TTK88). Applicants have shown that it interacts similarly with mammalian Siah.
row,affinity of interaction with Siah (in words),Molecule
1,lower affinity,DCC: deleted in colorectal cancer (DCC)
2,lower affinity,"SIP: Siah-interacting protein (SIP) (protein, UniProt Q9HB71 2-228, looked up) Calcyclin-binding protein: ASEELQKDLEEVKVLLEKATRKRVRDALTAEKSKIETEIKNKMQQKSQKKAELLDNEKPAAVVAPITTGYTVKISNYGWDQSDKFVKIYITLTGVHQVPTENVQVHFTERSFDLLVKNLNGKSYSMIVNNLLKPISVEGSSKKVKTDTVLILCRKKVENTRWDYLTQVEKECKEKEKPSYDTETDPSEGLMNVLKKIYEDGDDDMKRTINKAWVESREKQAKGDTEF"
3,lower affinity,"OBF-1: Oct-binding factor 1 (OBF-1) (protein, UniProt Q16633 1-256, looked up) POU domain class …: MLWQKPTAPEQAPAPARPYQGVRVKEPVKELLRRKRGHASSGAAPAPTAVVLPHQPLATYTTVGPSCLDMEGSVSAVTEEAALCAGWLSQPTPATLQPLAPWTPYTEYVPHEAVSCPYSADMYVQPVCPSYTVVGPSSVLTYASPPLITNVTTRSSATPAVGPPLEGPEHQAPLTYFPWPQPLSTLPTSTLQYQPPAPALPGPQFVQLPISIPEPVLQDMEDPRRAASSLTIDKLLLEEEDSDAYALNHTLSVEGF"
4,lower affinity,"Kid: kinesin-like DNA-binding protein (Kid) (protein, UniProt Q14807 1-665, looked up) Kinesin-like protein KIF22: MAAGGSTQQRRREMAAASAAAISGAGRCRLSKIGATRRPPPARVRVAVRLRPFVDGTAGASDPPCVRGMDSCSLEIANWRNHQETLKYQFDAFYGERSTQQDIYAGSVQPILRHLLEGQNASVLAYGPTGAGKTHTMLGSPEQPGVIPRALMDLLQLTREEGAEGRPWALSVTMSYLEIYQEKVLDLLDPASGDLVIREDCRGNILIPGLSQKPISSFADFERHFLPASRNRTVGATRLNQRSSRSHAVLLVKVDQRERLAPFRQREGKLYLIDLAGSEDNRRTGNKGLRLKESGAINTSLFVLGKVVDALNQGLPRVPYRDSKLTRLLQDSLGGSAHSILIANIAPERRFYLDTVSALNFAARSKEVINRPFTNESLQPHALGPVKLSQKELLGPPEAKRARGPEEEEIGSPEPMAAPASASQKLSPLQKLSSMDPAMLERLLSLDRLLASQGSQGAPLLSTPKRERMVLMKTVEEKDLEIERLKTKQKELEAKMLAQKAEEKENHCPTMLRPLSHRTVTGAKPLKKAVVMPLQLIQEQAASPNAEIHILKNKGRKRKLESLDALEPEEKAEDCWELQISPELLAHGRQKILDLLNEGSARDLRSLQRIGPKKAQLIVGWRELHGPFSQVEDLERVEGITGKQMESFLKANILGLAAGQRCGAS"
